Data as given in the supplement of paper PMC9112550, “Optimization of the antimicrobial peptide Bac7 by deep mutational scanning” (BMC Biology, 2022).

Test system: Escherichia coli TOP10
Assay: shrunken log2 fold change of peptide-encoding DNA abundance (4.5 h post-induction vs induction); higher = less antimicrobial activity (less host growth inhibition)
Details: time post-induction: 4.5 h; library: site-saturation at positions 5, 18, 19, 20
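Further: peptides expressed intracellularly from a pBAD plasmid library in pooled LB shake-flask culture, induced with 0.3% L-arabinose, DNA abundance read by NGS, three biological replicates, DESeq2 with apeglm shrinkage.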

Row | Sequence | shrunken log2 fold change
1 | RRIRSRPPRLPRPRPRPLNWPRP | -0.0815
2 | RRIRCRPPRLPRPRPRPDHTPRP | -0.699
3 | RRIRCRPPRLPRPRPRPVNMPRP | -0.179
4 | RRIRVRPPRLPRPRPRPHVWPRP | -0.145
5 | RRIRHRPPRLPRPRPRPLNNPRP | -0.684
6 | RRIRSRPPRLPRPRPRPTGRPRP | 0.15
7 | RRIRFRPPRLPRPRPRPYWKPRP | -0.0922
8 | RRIRDRPPRLPRPRPRPVLRPRP | -0.0147
9 | RRIRLRPPRLPRPRPRPWNKPRP | -0.436
10 | RRIRWRPPRLPRPRPRPRVWPRP | 0.646
11 | RRIRRRPPRLPRPRPRPYTRPRP | 0.000194
12 | RRIRHRPPRLPRPRPRPAHDPRP | 0.0776
13 | RRIRSRPPRLPRPRPRPWCRPRP | -0.398
14 | RRIRDRPPRLPRPRPRPHVRPRP | -0.12
15 | RRIRQRPPRLPRPRPRPDRIPRP | -0.185
16 | RRIRHRPPRLPRPRPRPFGCPRP | 0.0728
17 | RRIRKRPPRLPRPRPRPKNLPRP | 0.177
18 | RRIRARPPRLPRPRPRPFFMPRP | -0.0309
19 | RRIRERPPRLPRPRPRPECFPRP | 0.435
20 | RRIRERPPRLPRPRPRPMVWPRP | -0.0633
21 | RRIRSRPPRLPRPRPRPYHMPRP | -1.26
22 | RRIRERPPRLPRPRPRPMDSPRP | -0.0933
23 | RRIRMRPPRLPRPRPRPHRLPRP | 0.108
24 | RRIRERPPRLPRPRPRPDRSPRP | -0.0225
25 | RRIRVRPPRLPRPRPRPCWVPRP | 0.0559

Row | Sequence | shrunken log2 fold change
26 | RRIRVRPPRLPRPRPRPTQRPRP | 0.565
27 | RRIRPRPPRLPRPRPRPTKYPRP | -0.344
28 | RRIRQRPPRLPRPRPRPGKIPRP | -0.0789
29 | RRIRGRPPRLPRPRPRPLDWPRP | 1.07
30 | RRIRKRPPRLPRPRPRPAASPRP | 0.593
31 | RRIRIRPPRLPRPRPRPPSCPRP | -0.0736
32 | RRIRIRPPRLPRPRPRPINFPRP | -0.346
33 | RRIRYRPPRLPRPRPRPKMYPRP | -1.46
34 | RRIRERPPRLPRPRPRPTFQPRP | -0.103
35 | RRIRVRPPRLPRPRPRPVAVPRP | -0.05
36 | RRIRHRPPRLPRPRPRPAQRPRP | 0.359
37 | RRIRQRPPRLPRPRPRPMLHPRP | -0.0433
38 | RRIRIRPPRLPRPRPRPQFNPRP | -0.846
39 | RRIRWRPPRLPRPRPRPHPMPRP | 0.408
40 | RRIRARPPRLPRPRPRPPHKPRP | 0.996
41 | RRIRCRPPRLPRPRPRPHKPPRP | 0.0762
42 | RRIRFRPPRLPRPRPRPKKQPRP | 0.0157
43 | RRIRWRPPRLPRPRPRPGEFPRP | 0.17
44 | RRIRQRPPRLPRPRPRPGTHPRP | -0.00939
45 | RRIRGRPPRLPRPRPRPMLKPRP | 0.575
46 | RRIRWRPPRLPRPRPRPWMMPRP | 0.119
47 | RRIRWRPPRLPRPRPRPHGCPRP | 0.0126
48 | RRIRYRPPRLPRPRPRPHNSPRP | -0.753
49 | RRIRSRPPRLPRPRPRPSRDPRP | -0.0156
50 | RRIRKRPPRLPRPRPRPYTRPRP | -0.167

Row | Sequence | shrunken log2 fold change
51 | RRIRKRPPRLPRPRPRPSMKPRP | -0.212
52 | RRIRVRPPRLPRPRPRPYFIPRP | -0.72
53 | RRIRQRPPRLPRPRPRPYRSPRP | -0.0119
54 | RRIRMRPPRLPRPRPRPIRHPRP | 0.017
55 | RRIRMRPPRLPRPRPRPVFTPRP | 0.128
56 | RRIRQRPPRLPRPRPRPTIEPRP | 0.0419
57 | RRIRGRPPRLPRPRPRPGAQPRP | 1.19
58 | RRIRFRPPRLPRPRPRPLLHPRP | -0.247
59 | RRIRERPPRLPRPRPRPAGSPRP | -0.202
60 | RRIRQRPPRLPRPRPRPPTCPRP | 0.224
61 | RRIRVRPPRLPRPRPRPPHEPRP | 0.42
62 | RRIRFRPPRLPRPRPRPSNKPRP | -0.0849
63 | RRIRMRPPRLPRPRPRPIYKPRP | -0.0684
64 | RRIRARPPRLPRPRPRPVKRPRP | 0.138
65 | RRIRQRPPRLPRPRPRPKEVPRP | 0.382
66 | RRIRRRPPRLPRPRPRPVCIPRP | 0.0361
67 | RRIRCRPPRLPRPRPRPIWHPRP | -0.239
68 | RRIRHRPPRLPRPRPRPSHHPRP | -0.267
69 | RRIRVRPPRLPRPRPRPGTMPRP | -0.122
70 | RRIRDRPPRLPRPRPRPHINPRP | -0.683
71 | RRIRERPPRLPRPRPRPCMWPRP | -0.233
72 | RRIRHRPPRLPRPRPRPRMEPRP | -0.0339
73 | RRIRNRPPRLPRPRPRPTYLPRP | -0.533
74 | RRIRVRPPRLPRPRPRPMPFPRP | -0.259
75 | RRIRFRPPRLPRPRPRPEHFPRP | -0.213

Row | Sequence | shrunken log2 fold change
76 | RRIRCRPPRLPRPRPRPDTHPRP | -0.716
77 | RRIRYRPPRLPRPRPRPYWGPRP | -0.0899
78 | RRIRFRPPRLPRPRPRPHMWPRP | -0.951
79 | RRIRIRPPRLPRPRPRPRAKPRP | 0.139
80 | RRIRDRPPRLPRPRPRPTRRPRP | 0.206
81 | RRIRVRPPRLPRPRPRPCHHPRP | -0.00671
82 | RRIRMRPPRLPRPRPRPMNVPRP | -0.147
83 | RRIRVRPPRLPRPRPRPFQFPRP | -0.171
84 | RRIRMRPPRLPRPRPRPHYTPRP | -0.399
85 | RRIRTRPPRLPRPRPRPDSPPRP | -0.549
86 | RRIRIRPPRLPRPRPRPCNNPRP | -0.457
87 | RRIRARPPRLPRPRPRPICFPRP | 1.21
88 | RRIRCRPPRLPRPRPRPTYWPRP | -0.113
89 | RRIRERPPRLPRPRPRPLQDPRP | -0.133
90 | RRIRARPPRLPRPRPRPIIFPRP | -0.323
91 | RRIRKRPPRLPRPRPRPMAHPRP | -0.000911
92 | RRIRDRPPRLPRPRPRPLEIPRP | 0.287
93 | RRIRSRPPRLPRPRPRPSVLPRP | -0.222
94 | RRIRMRPPRLPRPRPRPRCDPRP | 0.397
95 | RRIRKRPPRLPRPRPRPRNIPRP | -0.116
96 | RRIRARPPRLPRPRPRPCIQPRP | 0.151
97 | RRIRLRPPRLPRPRPRPTCHPRP | 0.000681
98 | RRIRKRPPRLPRPRPRPQVTPRP | -0.0535
99 | RRIRFRPPRLPRPRPRPMKIPRP | 0.25
100 | RRIRSRPPRLPRPRPRPTCQPRP | 0.0682

Row | Sequence | shrunken log2 fold change
101 | RRIRSRPPRLPRPRPRPLHLPRP | -0.0832
102 | RRIRTRPPRLPRPRPRPVKFPRP | -0.0819
103 | RRIRFRPPRLPRPRPRPIAQPRP | -0.0298
104 | RRIRMRPPRLPRPRPRPRQPPRP | 0.805
105 | RRIRIRPPRLPRPRPRPCIEPRP | -0.112
106 | RRIRSRPPRLPRPRPRPKFAPRP | 0.0751
107 | RRIRGRPPRLPRPRPRPGDNPRP | 0.0889
108 | RRIRQRPPRLPRPRPRPSHKPRP | -0.0927
109 | RRIRTRPPRLPRPRPRPQIFPRP | -0.716
110 | RRIRARPPRLPRPRPRPCKQPRP | -0.0572
111 | RRIRCRPPRLPRPRPRPHSWPRP | -0.301
112 | RRIRARPPRLPRPRPRPKTDPRP | 0.876
113 | RRIRYRPPRLPRPRPRPWLSPRP | -0.205
114 | RRIRTRPPRLPRPRPRPQLRPRP | -0.12
115 | RRIRWRPPRLPRPRPRPMRQPRP | -0.0376
116 | RRIRRRPPRLPRPRPRPPKSPRP | 0.37
117 | RRIRDRPPRLPRPRPRPDSWPRP | 0.0194
118 | RRIRQRPPRLPRPRPRPEDKPRP | 0.0591
119 | RRIRNRPPRLPRPRPRPYKDPRP | 0.0141
120 | RRIRERPPRLPRPRPRPSWKPRP | -0.345
121 | RRIRYRPPRLPRPRPRPKYYPRP | -1.43
122 | RRIRHRPPRLPRPRPRPSWQPRP | 0.0601
123 | RRIRCRPPRLPRPRPRPEHAPRP | 0.999
124 | RRIRERPPRLPRPRPRPKASPRP | 0.0444
125 | RRIRLRPPRLPRPRPRPWMYPRP | -0.0417

Row | Sequence | shrunken log2 fold change
126 | RRIRARPPRLPRPRPRPEYWPRP | 0.515
127 | RRIRWRPPRLPRPRPRPVPCPRP | -0.00353
128 | RRIRLRPPRLPRPRPRPNKFPRP | -0.206
129 | RRIRGRPPRLPRPRPRPPFRPRP | 0.681
130 | RRIRDRPPRLPRPRPRPPDHPRP | 0.527
131 | RRIRERPPRLPRPRPRPKYCPRP | -0.368
132 | RRIRCRPPRLPRPRPRPHRWPRP | 0.317
133 | RRIRGRPPRLPRPRPRPQRVPRP | 0.423
134 | RRIRQRPPRLPRPRPRPFRNPRP | 0.033
135 | RRIRARPPRLPRPRPRPNTYPRP | -0.627
136 | RRIRRRPPRLPRPRPRPVDQPRP | 0.348
137 | RRIRHRPPRLPRPRPRPFCSPRP | -0.171
138 | RRIRTRPPRLPRPRPRPPTQPRP | 0.282
139 | RRIRHRPPRLPRPRPRPLIWPRP | -0.538
140 | RRIRCRPPRLPRPRPRPNLFPRP | -0.932
141 | RRIRQRPPRLPRPRPRPYTRPRP | -0.0062
142 | RRIRVRPPRLPRPRPRPYSLPRP | -0.533
143 | RRIRNRPPRLPRPRPRPMPTPRP | 0.257
144 | RRIRQRPPRLPRPRPRPLQRPRP | -0.0166
145 | RRIRSRPPRLPRPRPRPAHMPRP | -0.138
146 | RRIRQRPPRLPRPRPRPFCHPRP | 0.00489
147 | RRIRQRPPRLPRPRPRPMWIPRP | -0.146
148 | RRIRHRPPRLPRPRPRPYFDPRP | -0.422
149 | RRIRVRPPRLPRPRPRPNFAPRP | 0.104
150 | RRIRARPPRLPRPRPRPLISPRP | -0.0384
